This experiment concerns the target Hsp90 600-709 (Saccharomyces cerevisiae (strain ATCC …, UniProt P02829)). Put plainly: Kd quoted from earlier work (method not stated here).

B1: AIP 172-315 (protein)
chain: DEEKAKAVPLIHQEGNRLYREGHVKEAAAKYYDAIACLKNLQMKEQPGSPEWIQLDQQITPLLLNYCQCKLVVEEYYEVLDHCSSILNKYDDNVKAYFKRGKAHAAVWNAQEAQADFAKVLELDPALAPVVSRELRALEARIRQ
What is called Kd is the equilibrium constant for the complex coming apart. High values mean weaker binding, low ones tighter binding. Turning to B1, binding was characterised by a dissociation constant (Kd) of 13.3 µM. That is a double-digit micromolar value.

The values are drawn from article PMC4427203 (2015).
